Experimental data taken from article PMC5897418, “A Synthesized Glucocorticoid- Induced Leucine Zipper Peptide Inhibits Retinal Müller Cell Gliosis” (Frontiers in Pharmacology, 2018).
No end group written: not given here.

How the values were obtained:
Müller cells [1] = settings: 10 μM FITC-labeled GILZ-p, 15 min, serum-starved primary rat Müller cells, flow cytometry
Protocol: Müller cells were cultured on 6-well plates and starved in serum-free DMEM F12 for 24 h.
Müller cells were cultured on 6-well plates and starved in serum-free DMEM F12 for 24 h. […] Click here for additional data file.

Müller cells [2] = settings: 10, 50, 100, and 150 μM, 24 h, primary rat Müller cells, n = 6, compared with control group
Protocol: The viability of Müller cells was determined by the cell counting kit-8 (CCK-8) assay. Briefly, 0.5 × 10^5 cells per well were seeded in 96-well plates and allowed to attach overnight. Then, the culture media were replaced with fresh media containing different concentrations of GILZ-p (0, 10, 50, 100, and 150 μM). After 24 h, 10 μL CCK-8 (Dojindo, Kumamoto, Japan) solution was added to each well, and the plates were incubated for another 2 h. Measurements of optical density were obtained at a wavelength of 450 nm using a spectrophotometer.

Müller cells [3] = settings: 10 μM FITC-labeled GILZ-p, 6 and 12 h, confocal immunofluorescence
Protocol: Müller cells were cultured on 6-well plates and starved in serum-free DMEM F12 for 24 h. The cells were then treated with 10 μM fluorescein isothiocyanate (FITC)-labeled GILZ-p for 6 and 12 h, respectively. After treatment, the Müller cells were washed with PBS, fixed in 4% paraformaldehyde (Sigma-Aldrich Corp., St. Louis, MO, United States), and permeabilized in 0.1% Triton X-100 (Promega, Madison, WI, United States) for 10 min. The cells were counterstained with 4′6-diamidino-2-phenylindole (DAPI) (Sigma-Aldrich Corp.) and examined under a laser confocal microscope (Leica Microsystems, Wetzlar, Hesse-Darmstadt, Germany).

[4] = water and culture medium
[5] = molecular target: nuclear factor (NF)-κB p65 (rat (endogenous in primary retinal …, UniProt Q7TQN4 1-550)); test: cell-based or functional assay
Chain of nuclear factor (NF)-κB p65 (rat (Q7TQN4 whole entry): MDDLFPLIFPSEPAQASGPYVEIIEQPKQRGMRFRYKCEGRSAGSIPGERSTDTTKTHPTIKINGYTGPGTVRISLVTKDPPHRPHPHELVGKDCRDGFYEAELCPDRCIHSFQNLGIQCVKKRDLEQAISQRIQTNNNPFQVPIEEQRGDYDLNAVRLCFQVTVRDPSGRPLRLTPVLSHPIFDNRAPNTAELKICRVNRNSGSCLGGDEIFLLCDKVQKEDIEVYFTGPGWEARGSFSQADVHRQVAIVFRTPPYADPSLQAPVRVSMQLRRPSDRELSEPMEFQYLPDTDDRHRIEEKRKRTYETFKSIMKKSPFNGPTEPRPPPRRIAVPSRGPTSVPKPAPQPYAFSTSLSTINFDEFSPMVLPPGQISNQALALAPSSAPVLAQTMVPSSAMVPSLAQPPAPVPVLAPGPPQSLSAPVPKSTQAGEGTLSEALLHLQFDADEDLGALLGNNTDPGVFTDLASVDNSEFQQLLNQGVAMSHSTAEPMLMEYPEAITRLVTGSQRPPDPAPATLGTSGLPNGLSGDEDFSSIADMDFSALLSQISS

YGRKKRRQRRRKTLASPEQLEKFQSRLSPEEPAPEAPETPEAPGGSAV [GILZ-p]
Müller cells associated with GILZ-p (Müller cells [1]): about 7.92%
cytotoxicity (cell viability, CCK-8) (Müller cells [2]): no detectable toxicity
intracellular localisation of GILZ-p (Müller cells [3]): aggregated in the cytoplasm
solubility [4]: water-soluble and fully dissolved in culture medium

YGRKKRRQRRRKTLASPEQLEKFQSRLSPEEPAPEAPETPEAPGGSAV [His-tag-GILZ-p (TAT-GILZ 98-134 peptide with a C-terminal 6x His tag)]
IC50 of GILZ-p (without the His tag) for inhibiting LPS-induced ICAM-1 expression in Müller cells (western blot, 24 h) [5]: 7.13 µM
IC50 of GILZ-p (without the His tag) for inhibiting LPS-induced IL-1β expression in Müller cells (western blot, 24 h) [5]: 8.93 µM
IC50 of GILZ-p (without the His tag) for inhibiting LPS-induced MCP-1 expression in Müller cells (western blot, 24 h) [5]: 5.82 µM
IC50 of GILZ-p (without the His tag) for inhibiting LPS-induced TNFα expression in Müller cells (western blot, 24 h) [5]: 8.77 µM
IC50 of GILZ-p (without the His tag) for inhibiting the LPS-induced downregulation of AQP4 in Müller cells (western blot, 24 h) [5]: 2.32 µM
IC50 of GILZ-p (without the His tag) for inhibiting the LPS-induced upregulation of GFAP in Müller cells (western blot, 24 h) [5]: 11.2 µM
